Patent US20180346602A1
Where a chain is given by its changes, count along the chain named.

B1: anti-AAA variant Fc-region antibody M1.6.22 (antibody, V domains shown)
VH: EVQLVESGGDLVKPGGSLKLSCAASGFTFSSYGMSWVRQTPDKRLEWVATISSGGSYIYYPDSVKGRFTISRDNAKNTLYLQMSSLKSEDTAMYYCARLGMITTGYAMDYWGQGTSVTVSS
VL: DVLMTQTPLSLPVSLGDQASISCRSSQTIVHSTGHTYLEWFLQKPGQSPKLLIYKVSNRFSGVPDRFSGSGSGTDFTLKISRVEAEDLGVYYCFQGSHVPYTFGGGTKLEIK
B2: anti-variant (human) Fc-region antibody M1.3.17 (antibody, V domains shown)
VH: EVKLLESGGGLVQPGGSLKLSCAASGIDFRRYWMNWVRQAPGKGLEWIGEIDPDSSTINYTPSLKDKFIISRDNAKNTMYLQMRKVRSEDTALYYCARPYDYGAWFAYWGQGTLVTVSA
VL: QAVVTQESALTTSPGETVTLTCRSTTGAVTTSNYANWVQEKPDHLFTGLIGGTNKRAPGVPARFSGSLIGDKAALTITGAQTEDEAIYFCALWYSDHWVFGGGTKLTVL
B3: anti-variant (human) Fc-region antibody M1.7.24 (antibody, V domains shown)
VH: B2 VH with I27F, R30S, D52T, M79L, R84I, A97V, Y108S
VL: B2 VL with T25S, D96N

Legend:
[1] = biological target: anti-VEGF/ANG2 antibody (wild-type IgG1 subclass) (human) [IgG part: P01857]; assay: sandwich ELISA assay C; capture on SA plate; tracer FcγRI-Dig; analyte 100 ng/mL
[2] = biological target: anti-VEGF/ANG2 antibody (wild-type IgG1 subclass) (human) [IgG part: P01857]; assay: sandwich ELISA assay B; capture on SA plate; tracer M1.7.10-Dig; analyte 0 ng/mL (blank)
[3] = biological target: anti-VEGF/ANG2 antibody (IgG1 subclass with mutations P329G/L234A/L235A) [IgG part: P01857]; assay: sandwich ELISA assay E; tracer M1.7.10-Dig; analyte 2) at 50 ng/mL
[4] = biological target: anti-VEGF/ANG2 antibody (IgG1 subclass with mutations P329G/L234A/L235A/I253A/H310A/H435A) [IgG part: P01857]; assay: sandwich ELISA assay E; tracer M1.7.10-Dig; analyte 1) at 12.5 ng/mL
[5] = biological target: anti-VEGF/ANG2 antibody (IgG1 subclass with mutations P329G/L234A/L235A/I253A/H310A/H435A) [IgG part: P01857]; assay: sandwich ELISA assay E; tracer M1.7.10-Dig; analyte 1) at 6.25 ng/mL
[6] = biological target: anti-VEGF/ANG2 antibody (IgG1 subclass with mutations P329G/L234A/L235A) [IgG part: P01857]; assay: sandwich ELISA assay E; tracer M1.7.10-Dig; analyte 2) at 1.5625 ng/mL
[7] = biological target: anti-Dig antibody (IgG1 subclass with mutations P329G/L234A/L235A) [IgG part: P01857]; assay: sandwich ELISA assay D; tracer M1.19.31-Dig; analyte conc. not printed (row 2 of 8)
[8] = biological target: anti-Dig antibody (IgG1 subclass with mutations P329G/L234A/L235A) [IgG part: P01857]; assay: sandwich ELISA assay D; tracer M1.19.31-Dig; analyte conc. not printed (row 3 of 8)
[9] = biological target: anti-VEGF/ANG2 antibody (IgG1 subclass with mutations P329G/L234A/L235A/I253A/H310A/H435A) [IgG part: P01857]; assay: sandwich ELISA in serum; capture M1.3.17, tracer M1.7.24; anti-VEGF/ANG2 antibody 625 ng/mL
[10] = biological target: anti-VEGF/ANG2 antibody (IgG1 subclass with mutations P329G/L234A/L235A/I253A/H310A/H435A) [IgG part: P01857]; assay: sandwich ELISA in serum; capture M1.3.17, tracer M1.7.24; anti-VEGF/ANG2 antibody 312.5 ng/mL
[11] = biological target: anti-VEGF/ANG2 antibody (IgG1 subclass with mutations P329G/L234A/L235A/I253A/H310A/H435A) [IgG part: P01857]; assay: sandwich ELISA in serum; capture M1.3.17, tracer M1.7.24; anti-VEGF/ANG2 antibody 39.0625 ng/mL
[12] = biological target: anti-VEGF/ANG2 antibody (IgG1 subclass with mutations P329G/L234A/L235A/I253A/H310A/H435A) [IgG part: P01857]; assay: bridging ELISA; biotinylated and digoxigenylated anti-VEGF/ANG2 antibody bridged by M1.3.17 at 7.8125 ng/mL
[13] = biological target: anti-VEGF/ANG2 antibody (IgG1 subclass with mutations P329G/L234A/L235A/I253A/H310A/H435A) [IgG part: P01857]; assay: bridging ELISA; biotinylated and digoxigenylated anti-VEGF/ANG2 antibody bridged by M1.3.17 at 3.90625 ng/mL
[14] = biological target: anti-VEGF/ANG2 antibody (IgG1 subclass with mutations P329G/L234A/L235A/I253A/H310A/H435A) [IgG part: P01857]; assay: bridging ELISA; biotinylated and digoxigenylated anti-VEGF/ANG2 antibody bridged by M1.3.17 at 0 ng/mL (blank)
[15] = biological target: anti-VEGF/ANG2 antibody (IgG1 subclass with mutations P329G/L234A/L235A/I253A/H310A/H435A) (human) [IgG part: P01857]; assay: sandwich ELISA in serum; M1.3.17-Bi capture on SA plate; tracer anti-human kappa M1.7.10-Dig; analyte 0.3125 ng/mL
[16] = biological target: cytokine (IL-2) antibody conjugate with the mutations P329G, L234A, L235A, I253A, H310A, and H435A; assay: sandwich ELISA in serum; capture anti-IL2 antibody, tracer M1.7.24; conjugate 1250 ng/mL
[17] = biological target: cytokine (IL-2) antibody conjugate with the mutations P329G, L234A, L235A, I253A, H310A, and H435A; assay: sandwich ELISA in serum; capture anti-IL2 antibody, tracer M1.7.24; conjugate 312.5 ng/mL
[18] = biological target: cytokine (IL-2) antibody conjugate with the mutations P329G, L234A, L235A, I253A, H310A, and H435A; assay: sandwich ELISA in serum; capture anti-IL2 antibody, tracer M1.7.24; conjugate 78.125 ng/mL
[19] = biological target: anti-VEGF/ANG2 antibody (IgG1 subclass with mutations P329G/L234A/L235A/I253A/H310A/H435A) [IgG part: P01857]; assay: sandwich ELISA in serum; capture M1.7.10-Bi, tracer M1.7.24-Dig; anti-VEGF/ANG2 antibody 10 ng/mL
[20] = biological target: anti-VEGF/ANG2 antibody (IgG1 subclass with mutations P329G/L234A/L235A/I253A/H310A/H435A) [IgG part: P01857]; assay: sandwich ELISA in serum; capture M1.7.10-Bi, tracer M1.7.24-Dig; anti-VEGF/ANG2 antibody 0.3125 ng/mL
[21] = biological target: anti-VEGF/ANG2 antibody (IgG1 subclass with mutations P329G/L234A/L235A/I253A/H310A/H435A) [IgG part: P01857]; assay: sandwich ELISA in serum; capture M1.7.10-Bi, tracer M1.7.24-Dig; anti-VEGF/ANG2 antibody 0.01953125 ng/mL

Binder	signal [OD405 nm] [1]	signal [OD405 nm] [2]	signal [OD405 nm] [3]	signal [OD405 nm] [4]	signal [OD405 nm] [5]	signal [OD405 nm] [6]	signal 10% cynomolgus serum [OD405 nm] [7]	signal 10% human serum [OD405 nm] [7]	signal buffer [OD405 nm] [7]	signal 10% cynomolgus serum [OD405 nm] [8]	signal 10% human serum [OD405 nm] [8]	signal buffer [OD405 nm] [8]	also measured
B1	0.076 OD405 nm	0.037 OD405 nm											
B2			1.89 OD405 nm	1.09 OD405 nm	0.677 OD405 nm	0.187 OD405 nm	0.872 OD405 nm	2.14 OD405 nm	0.041 OD405 nm	0.357 OD405 nm	1.84 OD405 nm	0.04 OD405 nm	signal [OD405 nm] [9]: 1.13 OD405 nm; signal [OD405 nm] [10]: 0.658 OD405 nm; signal [OD405 nm] [11]: 0.233 OD405 nm; signal [OD405 nm] [12]: 0.047 OD405 nm; signal [OD405 nm] [13]: 0.045 OD405 nm; signal [OD405 nm] [14]: 0.046 OD405 nm; signal [OD405 nm] [15]: 0.181 OD405 nm
B3	0.073 OD405 nm	0.039 OD405 nm	1.8 OD405 nm	1.06 OD405 nm	0.64 OD405 nm	0.172 OD405 nm	1.17 OD405 nm	2.04 OD405 nm	0.051 OD405 nm	0.438 OD405 nm	1.6 OD405 nm	0.045 OD405 nm	signal [OD405 nm] [16]: 1.46 OD405 nm; signal [OD405 nm] [17]: 0.451 OD405 nm; signal [OD405 nm] [18]: 0.152 OD405 nm; signal [OD405 nm] [19]: 2.76 OD405 nm; signal [OD405 nm] [20]: 0.261 OD405 nm; signal [OD405 nm] [21]: 0.057 OD405 nm
